Reference: patent publication US20110076272A1, “THERAPEUTIC METHODS AND COMPOSITIONS” (priority 2009, published 2011)
Read-outs that look alike come from different tables or passages of the source.

Legend:
[1] = system: purified recombinant human LOXL2; experiment: Amplex Red assay of LOXL2 enzymatic activity; type: biochemical
Method: A mouse anti-human LOXL2 antibody (AB0023) was obtained by immunization with full-length LOXL2 protein and purified by SEC-HPLC (Tosoh TSKGEL G3000SWXL 7.8×300). Analytical size exclusion chromatography was used to assess antibody stability and purity. Purified AB0023 was run on SDS-PAGE Coomassie (Invitrogen BT 4-12% Gels) reducing and non-reducing gels to assess purity. Potency was examined by ELISA to determine Kd, and effect on LOXL2 enzymatic activity was determined using an Amplex Red Assay (Molecular Probes/Invitrogen, Carlsbad, Calif.). Antibody concentration was measured by absorbance at 280 nm using an Extinction Coefficient Abs 0.1% of 1.4. Identity was assayed by isoelectric focusing (Invitrogen pH 3-10 IEF Gels). For safety analysis, endotoxin levels were measured at a sensitivity range of 0.01-1 EU/ml (Charles River EndoSafe PTS).

[2] = system: human umbilical vein endothelial cells (HUVEC); experiment: In vitro HUVEC tube formation assay; type: cell-based; settings: for IC50: CD31 staining, day 11
Method: Human umbilical vein endothelial cells (HUVECs) were plated on a feeder layer of fibroblasts and cultured in 24-well plates in Lonza EBM-2 medium (a basal medium developed for normal human endothelial cells in a low-serum environment) supplemented with hEGF, Hydrocortisone, GA-1000 (Gentamicin, Amphotericin-B), FBS (Fetal Bovine Serum) 10 ml (2% final), VEGF, hFGF-B, R3-IGF-1, Ascorbic Acid and heparin. […] At this point (day 1), 0.5 ml of fresh endothelial cell growth medium containing no additions (control), anti-LOXL2 antibody AB0023, or suramin was added to the wells. The plate was then cultured at 37° C. and 5% CO2. On days 4, 7 and 9 the medium was removed from all wells and carefully replaced with 0.5 ml of fresh medium containing the additions listed above. On day 11, the plates were fixed and tubules were assayed for CD31 expression as follows. Wells were washed with 1 ml PBS and fixed with 1 ml ice cold 70% ethanol for 30 minutes at room temperature. Cells were then incubated, for 60 minutes at 37° C., with 0.5 ml mouse anti-human CD31 antibody diluted 1:400 in PBS containing 1% BSA. Wells were then washed three times with 1 ml PBS, followed by incubation for 60 minutes at 37° C. with 0.5 ml alkaline phosphatase-conjugated goat anti-mouse IgG secondary antibody diluted 1:500 in PBS containing 1% BSA. Wells were washed a further three times with 1 ml PBS prior to incubation for 10 minutes at 37° C. with 0.5 ml freshly prepared and filtered BCIP/NBT substrate. Wells were then carefully washed three times with 1 ml distilled water and left to air dry overnight.
Digital images of each well were taken using a Nikon Coolpix camera on a Leica inverted microscope at 10× magnification. Four random fields per well were imaged, producing 96 images in total. Images were then converted to BMP files and imported into an image analysis package to measure number of vessel branches, number of vessels and total vessel length. […]

[3] = system: CCl4-induced liver fibrosis; experiment: CCl4-induced liver fibrosis; type: in vivo, mouse; settings: 30 mg/kg i.p. twice a week
Method: Male BALB/c mice (10-12 weeks old) were obtained from Aragen Biosciences (Morgan Hill, Calif.). Mice were distributed into 4 groups. Mice in 3 of the groups were injected with CCl4 (Sigma-Aldrich, St. Louis, Mo.), and mice in the remaining group were injected with saline.
CCl4 was intraperitoneally administered to mice at 1 ml/kg body weight (CCl4: mineral oil in 1:1 (v/v) ratio) twice weekly for 4 weeks. In the control group, 0.9% saline (saline:mineral oil in 1:1 (v/v) ratio) was administered intraperitoneally using the same dosing regimen.
In the CCl4-treated groups, the first group was treated with AB0023 (diluted in PBS/0.01% Tween-20), the second group was treated with pep4 M64 (diluted in […]) and the third group was treated with vehicle (PBST). Antibodies and vehicle were injected intraperioneally at a dose of 30 mg/kg twice a week. The treatment started a day prior to the first administration of CCl4 and continued until the end of the study. The study was terminated after 4 weeks of CCl4 and antibody administration. Mice were euthanized and sacrificed humanely and the livers were harvested 96 hours after completion of dosing. The livers were snap-frozen for histological and immunohistochemical analyses.
Ten fields (or areas or lobes) for each treatment regimen were randomly selected and stained with Sirius Red. The area used for scoring was 1.7 mm×1.3 mm and contained at least 8 portal triads.
Triads and areas of complete bridging fibrosis were counted. […] The percentages from 10 fields (per treatment) were averaged and standard error was calculated.
For each treatment, five fields were selected and stained with an anti-alpha-smooth muscle actin (aSMA) antibody. aSMA-positive signal in the porto-portal region (threshold area %) was analyzed by Metamorph (Molecular Devices, Downingtown, Pa.). aSMA-positive signal in sections from animals undergoing AB0023-treatment was compared to signal obtained in sections from animals that had been treated with vehicle (PBS).

[4] = system: MCF7 cells; experiment: Induction of EMT-like phenotype by LOXL2-containing conditioned media (rhodamine-phalloidin staining); type: cell-based; settings: MDA-MB231 or Hs-578t conditioned media; BAPN up to 2 mM
Method: Cells were seeded at 80% confluency, in an 8-chambered slide, 24 hours prior to the day of staining. After 24 hours, media was aspirated and the chambers were washed with PBS. Cells were then fixed with 4% Parafomaldehyde (PFA) for 20 minutes at room temperature and then permeabilized with 0.5% Saponin (JT Baker, Phillipsburg, N.J.) for 5 minutes at room temperature. Cells were then stained for 15 minutes at room temperature with a 1:100 dilution of rhodamine phalloidin (Invitrogen, Carlsbad, Calif.). Slides were mounted with Vectashield (Vector Laboratories, Burlingame, Calif.).
MCF7 or SW620 cells were seeded at 50,000 cells per well of an 8-chambered culture slide in HGDMEM (high-glucose Dulbecco's modified Eagle's medium containing 4.5 g/l glucose)+10% FBS, 2 mM L-glutamine, 24 hours prior to being exposed to conditioned medium (CM). 500 uls of fresh conditioned medium from MDA MB 231 cells was added to the chambers containing MCF7 cells. The cells were incubated with the CM for 48-96 hours. Conditioned medium from MCF7 or SW620 cells was used as a negative control. After 48-96 hours incubation with CM, the cells were stained with rhodamine-phalloidin as described above.

[5] = system: MDA-MB-435 established primary tumors; experiment: MDA-MB-435 established primary tumor xenograft model; type: in vivo, mouse; settings: independent study; AB0023 5 mg/kg twice per week, BAPN 100 mg/kg daily

Chain of purified recombinant human LOXL2 (Q9Y4K0 318-774 limits assumed): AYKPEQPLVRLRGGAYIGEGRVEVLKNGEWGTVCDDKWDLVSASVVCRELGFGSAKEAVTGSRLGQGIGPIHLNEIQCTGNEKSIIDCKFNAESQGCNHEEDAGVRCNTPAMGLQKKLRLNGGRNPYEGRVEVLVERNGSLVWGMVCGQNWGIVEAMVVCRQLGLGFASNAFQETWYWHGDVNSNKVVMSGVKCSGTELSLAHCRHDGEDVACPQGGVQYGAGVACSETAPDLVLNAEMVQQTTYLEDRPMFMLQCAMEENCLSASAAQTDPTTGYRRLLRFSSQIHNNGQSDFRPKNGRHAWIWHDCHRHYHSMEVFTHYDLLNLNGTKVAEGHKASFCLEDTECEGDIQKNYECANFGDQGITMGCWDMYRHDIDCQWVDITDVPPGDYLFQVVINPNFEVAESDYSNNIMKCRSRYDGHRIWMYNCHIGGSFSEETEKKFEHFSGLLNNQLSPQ

B1: AB0023: mouse anti-human LOXL2 monoclonal antibody; heavy chain variable region SEQ ID NO:1, light chain variable region SEQ ID NO:2 (antibody, listed as Mus musculus, V domains shown)
VH: MEWSRVFIFLLSVTAGVHSQVQLQQSGAELVRPGTSVKVSCKASGYAFTYYLIEWVKQRPGQGLEWIGVINPGSGGTNYNEKFKGKATLTADKSSSTAYMQLSSLTSDDSAVYFCARNWMNFDYWGQGTTLTVSS
VL: MRCLAEFLGLLVLWIPGAIGDIVMTQAAPSVSVTPGESVSISCRSSKSLLHSNGNTYLYWFLQRPGQSPQFLIYRMSNLASGVPDRFSGSGSGTAFTLRISRVEAEDVGVYYCMQHLEYPYTFGGGTKLEIK
modifications: Heavy chain; Light chain
mode of inhibition of LOXL2 [1]: non-competitive allosteric inhibitors | inhibition of LOXL2 enzymatic activity ([1]; in vitro): inhibits | inhibition of vessel branching, vessel length and total number of vessels ([2]; 50 ug/ml): complete inhibition | IC50 ([2]; read-out: IC50 for inhibition of number of vessels (FIG. 4 Panel H)): 19.9 nM | IC50 ([2]; read-out: IC50 for inhibition of vessel branching (mean number of branching points, FIG. 4 Panel G)): 22.2 nM | aSMA positive myofibroblasts in porto-portal septa [3]: substantial reduction | mortality resulting from injection with CCl4 (survival) ([3]; AB0023 p=0.0029 log rank): prevented | bridging fibrosis in livers ([3]; Sirius Red, AB0023 p=0.002, M64 p=0.127): significantly inhibited | remodeling of the actin cytoskeleton induced by LOXL2-containing conditioned media [4]: abrogated | reduction in collagen production, Sirius red staining [5]: 47% | reduction in fibroblast activation, αSMA positivity [5]: > 90% | reduction in tumor vasculature, CD31 signal [5]: 52% | reduction in tumor volume after 46 days [5]: 38.4%
